Assay results from patent US20040167074A1, “Therapeutic applications of mFLINT polypeptides” (priority 1998, published 2004).

Tests used:
[1] = target: T1, Fas-FasLigand interaction (Homo sapiens, UniProt P48023); assay: ELISA: FLINT prevents Fas-FasLigand interaction; format: binding; conditions: hFasLigand 30 ng, mrecFas 100 ng adsorbed
T1 sequence (P48023 103-281 limits assumed): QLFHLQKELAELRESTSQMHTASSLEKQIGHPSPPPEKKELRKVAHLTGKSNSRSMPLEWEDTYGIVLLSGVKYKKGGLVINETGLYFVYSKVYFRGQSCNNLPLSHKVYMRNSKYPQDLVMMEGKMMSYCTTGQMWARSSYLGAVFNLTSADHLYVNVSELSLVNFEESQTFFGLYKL
Description: As above, mrecFas (100 ng) was adsorbed on to ELISA plate. Again the plate was blocked by TBST and 0.1% Gelatine. […] As before, after washing of the plate, anti-mouse-Abs-HRP (3000 dilution, Bio-Rad) was added to the wells. After washings, visualization enzymatic reaction using ABTS as a substrate was performed.

[2] = tested on: Mouse T cell hybridoma cells (LTT cells); assay: Murine FasL-mediated apoptosis of LTT cells (MTS cytotoxicity assay); format: cell-based; conditions: test agent 1 μg/ml
Description: LTT,2,14,11 cells (LTT cells), see Glasebrook, Eur.J.Immunol. 17: 1561-65 (1987), were used in this Annexin V assay. On the first day, a 96 well plate was coated with anti-CD3 (2C11) at a serial dilutions. On the second day, 100,000 LTT cells were added, in 50 μl of medium per well, along with 50 μl of medium to the control wells and 50 μl of medium containing:
The same steps as in Example 16 were followed on Day 1 and Day 2. On Day 3 20 ul of MTS solution (Promega) was added to the cells which were then incubated at 37° C. for 2 hours. Using a plate reader, the absorbances at 490 nm wavelength were collected.

BALB/c mice = assay: LPS/galactosamine liver damage and sepsis model, survival; format: in vivo, mouse; conditions: for survival of mice: FIG. 5, mFLINT 200 μg i.v.
Description: Specifically, the activity of the polypeptides of the present invention against acute inflammation and apoptosis was determined using the following procedure. Briefly, BALB/c mice (Harlan) per each experimental group were given intravenous injections (the lateral tail vein) of 6 mg of D(+)-Galactosamine (Sigma, 39F-0539) in 100 μl of PBS (GIBCO-BRL) and 3 μg of Lipopolysaccharide B E. coli 026:B6 (LPS) (Difco, 3920-25-2) in 100 μl of PBS. The LPS was administered, via i.v. injection, 5 minutes after the galactosamine, which was administered i.v. […] C. F. et al J. Immunol. 1989. 142: 3884), and Anti-mouse Fas Ligand (500 μg, PharMingen, M024301) at 0, 2, 4, 6 hour-point respectively. The survival rates of the mice were determined 24 and 48 hours after LPS injection.

TNFβ = target: T2, TNFβ (Homo sapiens, UniProt P01374); assay: Dot blot binding of mFLINT to TNF ligands
T2 construct: purchased
T2 sequence (P01374 35-205): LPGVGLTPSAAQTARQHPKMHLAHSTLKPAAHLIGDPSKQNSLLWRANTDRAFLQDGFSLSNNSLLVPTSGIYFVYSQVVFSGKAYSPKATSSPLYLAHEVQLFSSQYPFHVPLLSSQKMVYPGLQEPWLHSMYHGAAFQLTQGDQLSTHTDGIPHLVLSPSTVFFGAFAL

TRANCE = target: T3, TRANCE (Homo sapiens, UniProt O14788); assay: Dot blot binding of mFLINT to TNF ligands
T3 construct: purchased
T3 sequence (O14788 140-317 limits assumed): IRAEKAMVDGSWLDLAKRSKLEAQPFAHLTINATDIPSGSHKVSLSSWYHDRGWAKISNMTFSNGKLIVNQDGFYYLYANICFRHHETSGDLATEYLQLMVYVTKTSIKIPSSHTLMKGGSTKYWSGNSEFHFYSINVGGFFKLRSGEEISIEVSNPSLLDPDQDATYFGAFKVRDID

TRAIL = target: T4, TRAIL (Homo sapiens, UniProt P50591); assay: Dot blot binding of mFLINT to TNF ligands
T4 construct: purchased RnD Systems
T4 sequence (P50591 114-281 limits assumed, species assumed): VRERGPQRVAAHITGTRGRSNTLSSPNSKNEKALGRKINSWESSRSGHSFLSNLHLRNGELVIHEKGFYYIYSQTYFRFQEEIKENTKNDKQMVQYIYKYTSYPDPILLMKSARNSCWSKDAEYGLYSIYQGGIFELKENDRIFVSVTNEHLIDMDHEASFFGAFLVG
Description: (§1) Dot blot experiment was performed to scan known TNF ligands that are commercially available TRAIL and FasL for interaction with mFLINT.
(§2) TRAIL (RnD Systems) and FasL (Kamiya Biomedical Company) were spotted on a nitrocellulose paper and incubated with purified mFLINT-Flag. mFLINT was washed away and binding mFLINT was detected using anti Flag antibody. Both OPG2Fc and mFLINT-Flag were overexpressed and purified according the examples above. […] The nitrocellulose paper was subsequently mixed with the cell lysate containing FasL-Myc, and further incubated on a rotator for 1 hour at room temperature. Secondary and tertiary incubations were performed with anti-myc antibody and anti-mouse IgG-HRP for 1 hour and 30 minutes respectively.

FasL = target: T5, FasL (Homo sapiens, UniProt P48023); assay: Dot blot binding of mFLINT to TNF ligands; conditions: chemiluminescence detection
T5 construct: made in house
T5 sequence (P48023 1-281): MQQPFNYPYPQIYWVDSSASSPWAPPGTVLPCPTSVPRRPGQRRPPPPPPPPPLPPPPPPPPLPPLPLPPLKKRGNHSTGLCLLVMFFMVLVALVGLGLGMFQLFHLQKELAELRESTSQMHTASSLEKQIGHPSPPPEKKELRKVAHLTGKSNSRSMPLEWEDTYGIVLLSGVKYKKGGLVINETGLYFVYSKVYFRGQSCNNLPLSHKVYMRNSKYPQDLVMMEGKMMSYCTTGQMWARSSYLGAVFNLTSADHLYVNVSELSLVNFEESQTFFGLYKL
Description: as §1, §2

B1: mFLINT: mature FLINT without leader peptide (FIG. 3), soluble TNFR superfamily member, made according to Examples 8 and 9 (protein)
chain: VAETPTYPWRDAETGERLVCAQCPPGTFVQRPCRRDSPTTCGPCPPRHYTQFWNYLERCRYCNVLCGEREEEARACHATHNRACRCRTGFFAHAGFCLEHASCPPGAGVIAPGTPSQNTQCQPCPPGTFSASSSSSEQCQPHRNCTALGLALNVPGSSSHDTLCTSCTGFPLSTRVPGAEECERAVIDFVAFQDISIKRLQRLLQALEAPEGWGPTPRAGRAALQLKLRRRLTELLGAQDGALLVRLLQALRVARMPGLERSVRERFLPVH
modifications: glycosylated
[1]; FLINT 1 ng
  OD, 405 nM: 0.36
[1]; FLINT 5 ng
  OD, 405 nM: 0.36
[1]; FLINT 10 ng
  OD, 405 nM: 0.36
[1]; FLINT 50 ng
  OD, 405 nM: 0.28
[1]; FLINT 100 ng
  OD, 405 nM: 0.18
[1]; FLINT 500 ng
  OD, 405 nM: 0.06
[2]; Anti CD3 conc. 0 μg/ml
  MTS absorbance at 490 nm: 1.691
[2]; Anti CD3 conc. 0.0014 μg/ml
  MTS absorbance at 490 nm: 1.923
[2]; Anti CD3 conc. 0.004 μg/ml
  MTS absorbance at 490 nm: 1.982
[2]; Anti CD3 conc. 0.012 μg/ml
  MTS absorbance at 490 nm: 2.006
[2]; Anti CD3 conc. 0.037 μg/ml
  MTS absorbance at 490 nm: 2.006
[2]; Anti CD3 conc. 0.11 μg/ml
  MTS absorbance at 490 nm: 1.874
[2]; Anti CD3 conc. 0.33 μg/ml
  MTS absorbance at 490 nm: 1.671
[2]; Anti CD3 conc. 1 μg/ml
  MTS absorbance at 490 nm: 1.581
BALB/c mice; administered 2 hours before LPS/GalN
  survival of mice: 100%
BALB/c mice; administered 4 hours after LPS/GalN, survival at 48 hours
  survival of mice: 80%
BALB/c mice; FIG. 6, 50 ug mFLINT
  animals survived to 48 hours: about 70%
BALB/c mice; FIG. 6, 400 ug i.p., 2 hours before LPS/GalN challenge
  animals alive 48 hours after LPS/GalN: 100%
BALB/c mice; FIG. 7, 1 ug iv, 4-hour post-LPS/GalN
  survival: about 2%
BALB/c mice; FIG. 7, 5 ug iv, 4-hour post-LPS/GalN
  survival: 20%
BALB/c mice; FIG. 7, 10 ug iv, 4-hour post-LPS/GalN
  survival: 40%
BALB/c mice; FIG. 7, 50 ug iv, 4-hour post-LPS/GalN
  survival: 80%
BALB/c mice; FIG. 7, 100 μg mFLINT IP, 4 hours after LPS/GalN
  survival: 80%
BALB/c mice; FIG. 7, 100 μg mFLINT iv, 4 hours after LPS/GalN
  survival: 100%
BALB/c mice; FIG. 7, 100 μg mFLINT, 12 or 2 hours before LPS/GalN
  effect on survival, ip compared with iv: the same
BALB/c mice; IP 200 μg mFLINT, 2 hours post-challenge with 3 μg LPS
  animals survived: 100%
BALB/c mice; IP 200 μg mFLINT, 6 hours post-challenge with 3 μg LPS
  animals survived: 60%
BALB/c mice; IP, 4 hours post-challenge with 3 μg LPS (mFLINT 200 μg)
  animals survived: 73%
TNFβ
  binding in dot blot: No appreciable binding
TRANCE
  binding in dot blot: No appreciable binding
TRAIL
  binding in dot blot: No appreciable binding
FasL
  binding in dot blot: bound to FasL specifically
